Source: US20210015937A1 (CRESCENDO BIOLOGICS, published 2021)
Values joined by “and” are separate entries in the source; they are usually repeats but may differ in a detail not shown here. Equal entries are not always repeated.

Columns and labels:
[1] = target: T1, recombinant human LAG-3-Fc (human, UniProt P18627 23-450); experiment: switchSENSE; LAG3 and PD1 both on the surface, LAG3 channel (avidity); LAG3 and PD1 as ligand antigens, LAG3 detection channel
T1 construct: also called human LAG-3 (R&D Systems cat no. 2319-L3); LAG3 antigen
T1 sequence: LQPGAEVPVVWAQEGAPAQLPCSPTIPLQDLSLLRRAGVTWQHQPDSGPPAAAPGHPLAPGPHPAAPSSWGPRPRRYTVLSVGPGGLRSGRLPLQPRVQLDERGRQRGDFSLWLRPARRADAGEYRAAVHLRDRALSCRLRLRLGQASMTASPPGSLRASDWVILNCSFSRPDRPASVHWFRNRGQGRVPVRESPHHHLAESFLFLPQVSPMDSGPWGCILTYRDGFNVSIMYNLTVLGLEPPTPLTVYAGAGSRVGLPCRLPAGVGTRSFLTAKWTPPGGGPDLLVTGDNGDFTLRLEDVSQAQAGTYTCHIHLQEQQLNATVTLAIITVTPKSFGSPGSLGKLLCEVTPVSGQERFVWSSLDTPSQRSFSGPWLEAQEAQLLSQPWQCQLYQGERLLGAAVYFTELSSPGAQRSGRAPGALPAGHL
Experimental: (§1) The antigens were covalently attached to the biosensor surface using amine-coupling method, each antigen was linked to a different nanolever, with red or green fluorescent tag. Binding of a bispecific construct was measured to individual antigens alone or where both antigens were present on the surface simultaneously.

CD28 = CD28 (Homo sapiens (Human), UniProt P10747 19-152); experiment: BLI (Octet)
CTLA4 = CTLA4 (Homo sapiens (Human), UniProt P16410 36-161); experiment: BLI (Octet)
Chain of CTLA4 (P16410 36-161 limits assumed): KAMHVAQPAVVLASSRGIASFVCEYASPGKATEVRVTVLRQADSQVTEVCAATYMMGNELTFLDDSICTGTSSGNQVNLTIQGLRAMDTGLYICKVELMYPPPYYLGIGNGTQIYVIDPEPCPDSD

CD4 [2] = target: T2, CD4 (UniProt P01730 26-390); experiment: BLI (Octet)
T2 construct: also called CD4 (R&D Biotechne 514-CD)

[3] = target: T3, human LAG-3 expressed on cells (human, UniProt P18627 23-525); experiment: cell-based or functional assay
T3 sequence: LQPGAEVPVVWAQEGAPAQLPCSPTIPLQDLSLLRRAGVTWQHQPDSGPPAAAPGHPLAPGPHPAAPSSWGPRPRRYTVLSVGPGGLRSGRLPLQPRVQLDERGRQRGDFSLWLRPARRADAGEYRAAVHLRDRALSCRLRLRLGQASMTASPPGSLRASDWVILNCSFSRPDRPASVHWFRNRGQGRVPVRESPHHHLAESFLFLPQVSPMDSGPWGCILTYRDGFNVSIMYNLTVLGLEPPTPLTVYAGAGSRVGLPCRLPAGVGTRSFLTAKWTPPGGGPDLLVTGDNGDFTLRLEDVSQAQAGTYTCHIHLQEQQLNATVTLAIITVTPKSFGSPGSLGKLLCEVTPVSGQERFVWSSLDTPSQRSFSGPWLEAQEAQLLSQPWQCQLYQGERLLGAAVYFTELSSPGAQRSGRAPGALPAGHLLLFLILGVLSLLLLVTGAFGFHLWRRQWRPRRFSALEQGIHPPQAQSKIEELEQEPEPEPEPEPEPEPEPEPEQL

[4] = target: T4, recombinant human PD-1 Fc chimera (human, UniProt Q15116 25-167); experiment: switchSENSE (Dynamic Biosensors); PD1 alone on the surface, PD1 channel
T4 construct: Bought Fc chimera; also called human PD-1 (R&D systems cat no. 1086-PD); PD1 antigen
T4 sequence (Q15116 25-167 limits assumed, change not shown): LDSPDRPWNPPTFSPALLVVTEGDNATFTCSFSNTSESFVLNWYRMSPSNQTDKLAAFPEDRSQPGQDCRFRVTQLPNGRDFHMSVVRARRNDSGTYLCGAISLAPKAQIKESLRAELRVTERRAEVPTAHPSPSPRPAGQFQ
Experimental: as §1

[5] = target: T5, human PD-1 expressed on cells (human, UniProt Q15116 25-288); experiment: cell-based or functional assay
T5 sequence (Q15116 25-288 limits assumed): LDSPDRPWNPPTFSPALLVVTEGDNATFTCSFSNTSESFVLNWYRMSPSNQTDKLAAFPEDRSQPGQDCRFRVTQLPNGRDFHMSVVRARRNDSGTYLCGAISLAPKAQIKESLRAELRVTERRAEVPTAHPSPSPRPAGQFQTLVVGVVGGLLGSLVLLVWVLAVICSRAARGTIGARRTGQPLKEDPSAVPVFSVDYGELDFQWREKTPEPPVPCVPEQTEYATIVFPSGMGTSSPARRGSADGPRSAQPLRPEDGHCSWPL

[6] = target: T1, recombinant human LAG-3-Fc; experiment: switchSENSE (Dynamic Biosensors); LAG3 alone on the surface, LAG3 channel
Experimental: as §1

Cynomolgus PD1 = Cynomolgus PD1 (cynomolgus, UniProt B0LAJ3 25-170); experiment: BLI (Octet); PD1 antigen captured on Protein G sensors
Chain of Cynomolgus PD1 (B0LAJ3 entry or part of it limits assumed): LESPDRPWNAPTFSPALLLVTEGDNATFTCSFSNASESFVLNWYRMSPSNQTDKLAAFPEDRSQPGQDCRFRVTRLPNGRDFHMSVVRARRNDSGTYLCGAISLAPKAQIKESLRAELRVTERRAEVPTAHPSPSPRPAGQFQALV

[7] = target: T4, recombinant human PD-1 Fc chimera; experiment: as above
[8] = target: T5, human PD-1 expressed on cells; experiment: cell-based or functional assay; remark: listed apart in the source
[9] = target: T1, recombinant human LAG-3-Fc; experiment: switchSENSE; LAG3 and PD1 both on the surface, LAG3 channel (avidity)
Experimental: as §1

[10] = target: T4, recombinant human PD-1 Fc chimera; experiment: switchSENSE; LAG3 and PD1 both on the surface, PD1 channel (avidity)
Experimental: as §1

[11] = target: human LAG-3 and human PD-1 co-expressed on the surface of cells (DiscoverX cell line) (human); experiment: cell-based or functional assay
Chain of human LAG-3 and human PD-1 co-expressed on the surface of cells (DiscoverX cell line) (human) (Q15116 25-288): as the sequence (Q15116 25-288 limits assumed) above

[12] = target: T6, Rhesus monkey LAG-3 (used as cynomolgus LAG-3) (Rhesus monkey (called cynomolgus in the …)); experiment: BLI (Octet); LAG3 antigen amine-coupled to ARG2 sensors
T6 construct: extracellular domain

[13] = target: T1, recombinant human LAG-3-Fc; experiment: as above
[14] = target: T7, human LAG-3 domains 1-2-Fc (human, UniProt P18627 23-261, limits assumed); experiment: BLI (Octet); human LAG-3 domains 1-2-Fc captured on protein G biosensors, 1:1 fit
T7 construct: Domains were identified as per Huard et al 1997 PNAS 94:5744-9; also called truncated LAG-3
T7 sequence: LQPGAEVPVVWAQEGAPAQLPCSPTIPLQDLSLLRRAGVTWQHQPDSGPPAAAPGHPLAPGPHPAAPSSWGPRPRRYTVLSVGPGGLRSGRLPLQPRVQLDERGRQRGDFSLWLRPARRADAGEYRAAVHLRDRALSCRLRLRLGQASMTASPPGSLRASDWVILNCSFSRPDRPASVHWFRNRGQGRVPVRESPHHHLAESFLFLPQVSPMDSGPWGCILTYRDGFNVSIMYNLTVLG
Experimental: (§2) Binding kinetics for multi-valent and bispecific VH were also measured in real-time bio-layer interferometer based biosensor Octet (ForteBio). […] All the binding studies were performed in HBS-ET Octet kinetics buffer. Biosensors were washed in Octet kinetics buffer in between different steps. […] The contact time for each of the association steps was 150 seconds and the dissociation step was 400 seconds. […] To compare the constructs, kinetic association (kₐ) and dissociation (kd) rate constants were determined by processing and fitting the data to a 1:1 binding model using ForteBio Analysis software.

[15] = target: T1, recombinant human LAG-3-Fc; experiment: competition ELISA; LAG-3-Fc pre-incubated with VH, binding to coated alpha-synuclein
Excerpt: (§3) The plate was blocked with 3% Marvel skimmed milk powder in PBS. […] Wash steps were done 3 times with PBS 0.05% Tween. Colour was developed using TMB and 0.5M sulphuric acid solution.

[16] = target: T1, recombinant human LAG-3-Fc; experiment: competition ELISA; LAG-3-Fc pre-incubated with VH, binding to coated LSECtin
Excerpt: as §3

[17] = target: T6, Rhesus monkey LAG-3 (used as cynomolgus …); experiment: ELISA, coated antigen, VH at 10 µg/ml, anti-HIS HRP
Experimental: (§4) To screen specificity by ELISA, antigens were coated at 1-5 ug/ml and blocked with Marvel milk powder. VH were added at 10 μg/ml and incubated for 1 hour. After washing, HRP-conjugated anti-HIS antibody (Miltenyi cat no. 130-092-785) was added. TMB substrate and acidic solution were used to develop colorimetric signal.

[18] = target: T1, recombinant human LAG-3-Fc; experiment: as above
Experimental: as §4

[19] = target: T7, human LAG-3 domains 1-2-Fc; experiment: as above
Experimental: as §4

mouse LAG-3 = target: T8, mouse LAG-3 (mouse, UniProt Q61790 24-442); experiment: ELISA, coated antigen, anti-HIS HRP detection
T8 construct: The construct is not described; also called mouse LAG-3 (Sino Biological cat no 53069-M02H); Mouse LAG3 (R&D Biotechne cat 3328-L3)
T8 sequence (looked up): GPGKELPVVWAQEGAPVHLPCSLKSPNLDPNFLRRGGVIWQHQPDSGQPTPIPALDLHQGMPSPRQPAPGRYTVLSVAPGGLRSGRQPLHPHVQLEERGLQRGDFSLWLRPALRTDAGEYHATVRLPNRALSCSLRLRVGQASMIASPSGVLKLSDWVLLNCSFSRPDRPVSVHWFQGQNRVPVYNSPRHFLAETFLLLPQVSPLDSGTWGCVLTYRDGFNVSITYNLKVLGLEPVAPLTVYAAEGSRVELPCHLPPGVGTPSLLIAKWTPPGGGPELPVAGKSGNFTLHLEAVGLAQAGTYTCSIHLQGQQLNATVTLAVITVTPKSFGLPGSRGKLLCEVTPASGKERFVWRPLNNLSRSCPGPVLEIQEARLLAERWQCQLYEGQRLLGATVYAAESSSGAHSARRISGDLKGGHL
Experimental: as §4

CD4 [20] = target: T2, CD4; experiment: ELISA, coated antigen, anti-HIS HRP detection
Experimental: as §4

[21] = target: T6, Rhesus monkey LAG-3 (used as cynomolgus …); experiment: BLI (Octet); cynomolgus LAG-3 immobilised on ARG2 sensors, 1:1 fit
Experimental: as §2

[22] = target: T1, recombinant human LAG-3-Fc; experiment: BLI (Octet); human LAG-3-Fc amine-coupled to biosensor, VH in solution, 1:1 fit
Experimental: Binding kinetics were measured in real-time bio-layer interferometer based biosensor Octet (ForteBio). […] All the binding studies were performed in HBS-ET Octet kinetics buffer. Biosensors were washed in Octet kinetics buffer in between different steps. A seven point, two-fold dilution series of each Humabody® VH was made with a top concentration of 1.6 μM. The contact time for each of the association steps was 150 seconds and the dissociation step was 300-400 seconds. Kinetic association (kₐ) and dissociation (kd) rate constants were determined by processing and fitting the data to a 1:1 binding model using ForteBio Analysis software.

[23] = target: T1, recombinant human LAG-3-Fc; experiment: BLI (Octet); human LAG-3-Fc captured on protein G biosensors, 1:1 fit
Experimental: as §2

[24] = target: T3, human LAG-3 expressed on cells; experiment: FMAT (Mirrorball) binding to CHO human LAG-3 cells, anti-His detection
Excerpt: Plates were read in the FL2 (502 nm-537 nm) and FL5 (677-800 nm) channels on the TTP Mirrorball plate reader following excitation at 488 nm and 640 nm. Data was gated on FL5 perimeter and peak intensity and the FL2 median mean fluorescence intensity of the gated data used for determination of VH binding.

B1: VH1.2-6GS-VH1.2-6GS-VH2.92-His6 (bispecific antibody)
chain: EVQLVESGGGVVRPGGSLRLSCAASGFTFDDYGMSWVRQAPGKGLEWVSGIHWNGGSTGYADSVKGRFTISRDNAKNSLYLQMNSLRAEDTALYYCARIPREDCSSASCYTDAIDFWGQGTMVTVSSGGGGSGGGGSGGGGSGGGGSGGGGSGGGGSEVQLVESGGGVVRPGGSLRLSCAASGFTFDDYGMSWVRQAPGKGLEWVSGIHWNGGSTGYADSVKGRFTISRDNAKNSLYLQMNSLRAEDTALYYCARIPREDCSSASCYTDAIDFWGQGTMVTVSSGGGGSGGGGSGGGGSGGGGSGGGGSGGGGSEVQLVESGGGLVKPGGSLRLSCAASGFTFSDESMTWMRQAPGKGLEWVSYISSGGGVKFYADSVKGRFTISRDNAKNSLYLQMNSLRAEDTAVYYCAREAPLRLGESPHDAFDISGQGTMVTVSSAAAHHHHHH
notes: 259 is the same construct without the tag; also called 1.2-6GS-1.2-6GS-2.92; the bispecific
In the case of B1, the koff [1] is reported as 7.51e-05 s⁻¹, the kon [1] is reported as 3.62e+06 M⁻¹ s⁻¹ and the binding result (CD28) is reported as “no binding”. The binding result (CTLA4) was “no binding”, the binding result (CD4 [2]) was “no binding” and the “EC50 (M), NFAT-Luciferase Reporter Gene assay (LAG-3:MHCII)” value [3] was 5.9e-09 M. It also gave a Kd [4] of 4.4 nM, a koff [4] of 0.000488 s⁻¹ and a kon [4] of 110000 M⁻¹ s⁻¹. The “potency in the PD-1:PD-L1 NFAT-luciferase reporter assay, fold lower than monoclonal antibodies” value [5] was greater than 30 fold, the Kd [6] was 1.4 nM and the koff [6] was 0.000674 s⁻¹. For the same binder, the kon [6] was 483000 M⁻¹ s⁻¹, the Kd (Cynomolgus PD1) was 4.36 nM and the koff (Cynomolgus PD1) was 0.000685 s⁻¹. It also gave a kon (Cynomolgus PD1) of 157000 M⁻¹ s⁻¹, a Kd [7] of 2.94 nM and a koff [7] of 0.000665 s⁻¹. For the same binder, the kon [7] was 226000 M⁻¹ s⁻¹, the “EC50 (M), NFAT-Luciferase Reporter Gene assay (PD-1:PD-L1)” value [8] was 4.6e-08 M and the Kd [9] was 0.0207 nM. For the same binder, the Kd [10] was 0.041 nM, the koff [10] was 8.67e-05 s⁻¹ and the kon [10] was 2.12e+06 M⁻¹ s⁻¹. The “EC50 (M) (n = 2), enzyme fragment complementation on LAG-3/PD-1 cells” value [11] was 5.5e-11 M and 7.6e-11 M, the Kd [12] was 1.32 nM and the koff [12] was 0.000184 s⁻¹. It also gave a kon [12] of 140000 M⁻¹ s⁻¹, a Kd [13] of 1.42 nM and a koff [13] of 0.000206 s⁻¹. For the same binder, the kon [13] was 145000 M⁻¹ s⁻¹.

B2: VH 1.1 (VHH)
VHH: EVQLVESGGGVVRPGGSLRLSCSASGFTFDDYGMSWVRQAPGKGLEWVSGIHWNGGNSGYADSVKGRFTISRDNAKNSLYLQMNSLRAEDTALYYCARIPREDCSSASCYTDAIDFWGPGTMVTVSS
notes: Human VH single domain antibody (Humabody) against LAG-3; also called VH single domain antibody 1.1; monovalent LAG-3 VH 1.1
For B2, the Kd [14] was 67.5 nM, the koff [14] was 0.0011 s⁻¹ and the kon [14] was 16200 M⁻¹ s⁻¹. The “EC50 (M), NFAT-Luciferase Reporter Gene assay (LAG-3:MHCII)” value [3] was greater than 3.3e-07 M, the IC50 [15] was 45 nM and the IC50 [16] was 210 nM. The “ELISA signal over background” value [17] was greater than 10 fold over background, the “ELISA signal over background” value [18] was greater than 10 fold over background and the “ELISA signal over background” value [19] was greater than 10 fold over background. For the same binder, the binding result (mouse LAG-3) was “no binding (tested: 10 µg/ml VH)”, the binding result (CD4 [20]) was “no binding (tested: 10 µg/ml VH)” and the Kd [21] was 25.6 nM. It also gave a koff [21] of 0.000222 s⁻¹, a kon [21] of 8650 M⁻¹ s⁻¹ and a Kd [22] of 31.3 nM. For the same binder, the koff [22] was 0.00089 s⁻¹, the kon [22] was 26200 M⁻¹ s⁻¹ and the Kd [23] was 32.6 nM. For the same binder, the koff [23] was 0.000905 s⁻¹, the kon [23] was 27800 M⁻¹ s⁻¹ and the EC50 [24] was 1.8 nM.
